Reference: article PMC8954794, “NMR Structure and Biophysical Characterization of Thermophilic Single-Stranded DNA Binding Protein from Sulfolobus Solfataricus”

Molecular target: T1, SsoSSB1-114 (Sulfolobus solfataricus, UniProt Q97W73 1-114)
T1 sequence: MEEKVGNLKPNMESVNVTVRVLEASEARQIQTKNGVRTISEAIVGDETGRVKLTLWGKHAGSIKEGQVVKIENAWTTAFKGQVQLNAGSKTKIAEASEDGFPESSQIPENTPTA
Test: ITC; 25 C; n = 1.009; Buffer A: 100 mM NaCl, 20 mM MES pH 6.5; ITC at 25 C (500 uM dA15 into 50 uM protein); NMR with 10% D2O at 25 and 50 C (SsoSSB12-114 at 25 C only)
Conditions: protein: recombinant; tags: C-terminal TEV-His6 vector; single strand

With AAAAAAAAAAAAAAA (ssDNA) [dA(15)] the Kd was 1.75 µM.
